Measured values: article PMC6556434

Legend:
Experiment in all cases: ITC
[1] = target: H3(20-35)K27me3 peptide
[2] = target: H3(1-15)K4me3 peptide
[3] = target: H3(1-35)K4me3K27me3 doubly methylated peptide

Kd [1] [µM]	Kd [2] [µM]	stoichiometry N [3]	Substance
49.8	86.8	–	EARLY BOLTING IN SHORT DAY (EBS), full length (from UniProt F4JL28 1-234) (natural protein)
–	30.7	1	EBS without the C-terminal autoinhibition loop (EBSΔC, 1-199) (from UniProt F4JL28 1-199) (domain or fragment)
